From patent US6261569 come the findings set out here.

This experiment concerns the target riMod, retro-inverso model peptide. Nature of the experiment: ELISA, immobilised riMod-BSA.

Consider “non-immune mouse serum (polyclonal serum or antibody)”, for which the titre (reciprocal of highest serum dilution) was 80.
